This note sets out measurements from patent publication US20220033501A1 (SHANGHAI PHARMAEXPLORER, published 2022).

To fix the notation:
T1: human TIM-3, full length, on cells (human, UniProt Q8TDQ0 22-301)
T1 construct: Also used here for native TIM-3 on PBMC in the functional rows; also called CHOK1-hTIM-3; HEK293-h TIM-3
T1 sequence: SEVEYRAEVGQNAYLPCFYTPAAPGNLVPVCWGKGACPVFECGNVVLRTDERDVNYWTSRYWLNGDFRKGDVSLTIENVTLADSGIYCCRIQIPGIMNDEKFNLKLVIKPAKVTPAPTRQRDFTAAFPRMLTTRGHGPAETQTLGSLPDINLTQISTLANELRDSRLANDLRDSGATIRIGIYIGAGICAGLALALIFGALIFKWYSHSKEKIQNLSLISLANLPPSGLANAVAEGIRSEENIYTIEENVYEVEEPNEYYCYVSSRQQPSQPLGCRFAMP

T2: human TIM-3 extracellular domain protein with hFc tag (hTIM-3-hFc) (human, UniProt Q8TDQ0 22-200)
T2 construct: not shown: human IgG Fc fragment (hFc) of the pCpC vector
T2 sequence: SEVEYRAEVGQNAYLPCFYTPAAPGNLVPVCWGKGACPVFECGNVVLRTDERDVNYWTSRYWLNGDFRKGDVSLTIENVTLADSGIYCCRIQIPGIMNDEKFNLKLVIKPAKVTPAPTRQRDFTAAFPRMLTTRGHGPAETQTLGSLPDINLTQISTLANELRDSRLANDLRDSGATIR

B1: 18D2H2 (TIM-3 antibody purified from hybridoma, chimeric antibody of Example 2) (antibody, V domains shown)
VH: EVQLVESGGDLVQPGGSLRLSCAASGFTFSTYWMTWVRQAPGRGLEWVANIKQDGSAKYYVDSVKGRFTLSRDDAKNSLYLQMNSLRAEDTAVYYCARGSNWFDYWGQGTLVTVSS
VL: ETVMTQSPATLSVSPGERATLSCRANQNVYSNLAWYQQKPGQAPRLLIYDASTRATGFPARFSGSGSGTEFTLTISSLQSEDFAVYYCQQYNNWPLTFGGGTKVEIK
notes: From hybridoma of Harbour H2L2 transgenic mice: human variable regions, rat constant regions
B2: 134H3G6 (TIM-3 antibody purified from hybridoma, chimeric antibody of Example 2) (antibody, V domains shown)
VH: EVQLVESGGGLVQPGGSLRLSCAASGFTFSNSWMTWVRQAPGKGLEWVANIKQAGTEKYYVDSVKGRFTISRDNAKNSLYLQMNSLRAEDTAVYYCNSGSNYFDYWGQGTLVTVSS
VL: B1 VL with T2I, N26R, V29F, D50G, F58I
notes: as for B1
B3: 57F4E5 (TIM-3 antibody purified from hybridoma, chimeric antibody of Example 2) (antibody, V domains shown)
VH: EVQLVESGGGLVQPGGSLRLSCAASGFTFSSYWMSWVRQAPGKGLEWVANIKQDGSEKYYVDSVKGRFTISRDSAKNSLYLQMNSLRAEDTAMYFCARDSNFFDYWGQGTLVTVSS
VL: B1 VL with N26S, N28S, Y30S, Q38R, D50F, A51S, F58I
notes: as for B1
B4: 7A4F10 (TIM-3 antibody purified from hybridoma, chimeric antibody of Example 2) (antibody, V domains shown)
VH: EVQLLESGGGLVQPGGSLRLSCAASGFTFRTHLISWVRQAPGKGLEWVAAITGSGGSTYYADSVKGRFIISRDNSKNTLFLQMNSLRAEDTAVYYCAKDGGSGSYDDFWGQGTLVTVSS
VL: ETVLTQSPVTLSLSPGERATLSCRASQSVGSYLAWYQQKPGQAPRLLIYDASNRATGIPARFSGSGSGTDFTLTISSLEPEDFAVYYCQQRSNWPPTFGQGTKVEIK
notes: as for B1
B5: 215A8F2 (TIM-3 antibody purified from hybridoma, chimeric antibody of Example 2) (antibody, V domains shown)
VH: QVQLQQWGAGLLKPSETLSLTCTVYGGSFSGYYWNWIRQPPGKGLEWLGEINHSGSTNYNPSLKRRVTISVDTSKNQFSLKLSSVTAADTAVYYCARVYYYGPFDFWGQGTLVTVSS
VL: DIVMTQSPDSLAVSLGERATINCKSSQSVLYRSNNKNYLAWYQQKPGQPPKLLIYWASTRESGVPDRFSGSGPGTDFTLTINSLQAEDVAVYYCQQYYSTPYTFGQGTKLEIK
notes: as for B1
B6: 134H3G6 fully human TIM-3 antibody (human IgG4, kappa) (antibody, V domains shown)
VH: B2 VH
VL: B1 VL with T2I, N26R, V29F, D50G, F58I
B7: 18D2H2 fully human TIM-3 antibody (human IgG4, kappa) (antibody, V domains shown)
VH: B1 VH
VL: B1 VL
B8: 7A4F10 fully human TIM-3 antibody (human IgG4, kappa) (antibody, V domains shown)
VH: B4 VH
VL: B4 VL
B9: 215A8F2 fully human TIM-3 antibody (human IgG4, kappa) (antibody, V domains shown)
VH: B5 VH
VL: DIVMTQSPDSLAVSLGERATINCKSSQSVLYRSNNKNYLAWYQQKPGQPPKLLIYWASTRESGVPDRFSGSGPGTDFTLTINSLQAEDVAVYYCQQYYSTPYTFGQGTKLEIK

Numbering of substitutions follows the chain as printed.

The first experiment addresses T1, human TIM-3, full length, on cells. In words: FACS, CHOK1-hTIM-3 cells; antibody 1.6 nM. From the text:
(§1) The pIRES plasmid containing the full-length nucleotide sequence encoding human TIM-3 as described in Example 1 was transfected into CHOK1 cell line to obtain a CHOK1 stable cell line containing human TIM-3 (herein referred to as CHOK1-hTIM-3 stable cell line). The pIRES plasmid containing the full-length gene of monkey TIM-3 was transfected into CHOK1 cell line to construct a CHOK1 stable cell line containing monkey TIM-3 (herein referred to as CHOK1-cTIM-3 stable cell line). The CHOK1-hTIM-3 stable cell line and CHOK1-cTIM-3 stable cell line were expanded to a confluence of 90% in a T-75 cell culture flask. The medium was aspirated, and the cells were washed with HBSS (Hanks' Balanced Salt Solution) 1-2 times, and then treated with an enzyme-free cell dissociation solution (Versene solution: Life technology) and the cells were collected. The cells were washed with HBSS buffer for 1-2 times. After counted, the cells were diluted with HBSS to 1-2×10⁶ cells per ml, added with 1% goat serum blocking solution, incubated on ice for 20-30 minutes, and then washed with HBSS by centrifugation 2 times. The collected cells were suspended in the FACS buffer (HBSS+1% BSA) to 2×10⁶ cells/ml, added as 100 microliters per well to a 96-well FACS reaction plate, added with 100 microliters per well of the antibody sample to be tested, incubated on ice for 1-2 hours. The plate was washed twice with the FACS buffer by centrifugation, added with 100 microliters of fluorescent (Alexa 488)-labeled secondary antibodies per well, and incubated on ice for 0.5-1.0 hours. The plate was washed 2-3 times with FACS buffer by centrifugation, added with 100 μl fixative solution (4% Paraformaldehyde) per well to suspend the cells. 5-10 minutes later, it was washed 1-2 times with FACS buffer by centrifugation. The cells were suspended with 100 microliters of FACS buffer, FACS (FACSCalibur, BD) was used for detection and the results were analyzed. The results are shown in FIGS. 7 and 8, Tables 7 and 8, wherein the IgG control is rat IgG, and the data in the table are the average fluorescence intensity values of the cell populations measured by MFI.
The molecule B1 had a Mean fluorescence intensity of 40.2.
Turning to B2, the Mean fluorescence intensity came out at 50.
As to B3, the Mean fluorescence intensity was 390.
The molecule B4 had a Mean fluorescence intensity of 15.4.
Regarding B5, the Mean fluorescence intensity was determined as 214.

The target is the same in a further experiment. In words: FACS, CHOK1-hTIM-3 cells; antibody 0 nM (blank).
From the text: as §1
For orientation: A flow cytometer gives signals particle by particle.
Consider B1, for which the Mean fluorescence intensity stood at 2.9.
As for B2, the Mean fluorescence intensity came to 3.
Same read-out and setting: then B3, with 2.9; and B4, with 2.9; and B5, with 3.

The target of another experiment is T2, human TIM-3 extracellular domain …. In words: FACS, blocking of hTIM-3-hFc binding to phosphatidylserine on apoptotic Jurkat cells, 7.407 nM antibody. The method, then:
(§2) Jurkat cells were treated with 1 μM staurosporine at 37° C. for 2 hours to induce apoptosis. The presence of phosphatidylserine was detected by Annexin V-FITC cell apoptosis detection kit. […] The cells were washed 1-2 times with PBS buffer, and after cell counting, the cells were diluted to 1-2×10⁶ cells per milliliter with binding buffer, and added to a 96-well FACS reaction plate at 100 microliters per well. The antibody sample to be tested and 2 μg/ml hTIM-3-hFc protein were prepared with binding buffer, and mixed equally in volume. The mixture was incubated at room temperature for 30 minutes, then the FACS reaction plate incubated with apoptotic cells was centrifuged to discard the supernatant, and the above mixture was added to the apoptotic cells at 100 microliters per well and incubated at room temperature for 1 hour. The plate was washed twice with the binding buffer by centrifugation, added with 100 microliters of fluorescent (Alexa 488)-labeled secondary antibodies per well, and incubated for half an hour. The plate was washed 2-3 times with the binding buffer by centrifugation, added with 100 microliters of PBS per well to suspend cells, and detected using FACS (FACS Calibur, BD) and the results were analyzed. The results are shown in Table 15 and FIG. 15, wherein the IgG control is human IgG, and the data in the table is the inhibition rate (%).
In the case of B6, the “Inhibition ratio (%)” value was 60.1%.
For the molecule B7, the “Inhibition ratio (%)” value is 64.9%.
In the case of B8, the “Inhibition ratio (%)” value was determined as 62.4%.
The same measure, in the same setting: to B9 belongs 59.5%.

The target is the same in a further experiment. In words: FACS, blocking of hTIM-3-hFc binding to phosphatidylserine on apoptotic Jurkat cells, 22.222 nM antibody. Here is the method:
as §2
On to B6, for which the “Inhibition ratio (%)” value worked out at 58.4%.
B7: the “Inhibition ratio (%)” value came out at 63.9%.
On to B8, for which the “Inhibition ratio (%)” value is 62.1%.
With B9, the “Inhibition ratio (%)” value came to 61.8%.

For a further experiment the target is unchanged. In words: FACS, blocking of hTIM-3-hFc binding to phosphatidylserine on apoptotic Jurkat cells, 2.469 nM antibody. The method, then:
as §2
As for B6, the “Inhibition ratio (%)” value worked out at 10.9%.
Still for that read-out and setting: then B7, with 27.4%; and B8, with 23.7%.
As to B9, the “Inhibition ratio (%)” value is 5.8%.

For a further experiment the target is unchanged. In words: FACS, blocking of hTIM-3-hFc binding to phosphatidylserine on apoptotic Jurkat cells, 0 nM antibody. Here is the method: as §2
B6: the “Inhibition ratio (%)” value was 5.5%.
Take B7: the “Inhibition ratio (%)” value worked out at 1.4%.
For the molecule B8, the “Inhibition ratio (%)” value was 0.5%.
On to B9, for which the “Inhibition ratio (%)” value came to 1.6%.

Another experiment addresses T1, human TIM-3, full length, on cells. The experiment in a line: FACS, CHOK1-hTIM-3 cells; antibody 0.32 nM.
From the text: as §1
B1 registered a Mean fluorescence intensity of 15.6.
Molecule B2 yielded a Mean fluorescence intensity of 17.7.
With B3, the Mean fluorescence intensity came to 177.
On to B4, for which the Mean fluorescence intensity was 6.8.
For the molecule B5, the Mean fluorescence intensity turned out to be 55.6.

The target is the same in another experiment. In words: FACS, CHOK1-hTIM-3 cells; antibody 200 nM.
From the text: as §1
For the molecule B1, the Mean fluorescence intensity came to 212.
Same read-out and setting: then B2, with 261; and B3, with 485.
Molecule B4 displayed a Mean fluorescence intensity of 145.
Turning to B5, the Mean fluorescence intensity is 613.

The target in a further experiment is T2, human TIM-3 extracellular domain …. In words: FACS, blocking of hTIM-3-hFc binding to phosphatidylserine on apoptotic Jurkat cells, 66.667 nM antibody. The method, then: as §2
For the molecule B6, the “Inhibition ratio (%)” value was 52.3%.
On the same count and under the same terms, then B7, with 62.3%; and B8, with 60.5%; and B9, with 57.2%.

The target of a further experiment is T1, human TIM-3, full length, on cells. The experiment in a line: FACS, CHOK1-hTIM-3 cells; antibody 0.013 nM.
From the text: as §1
As for B1, the Mean fluorescence intensity was found to be 4.2.
The molecule B2 had a Mean fluorescence intensity of 4.7.
On the same count and under the same terms, then B3, with 21.2; and B4, with 3.3.
On to B5, for which the Mean fluorescence intensity stood at 8.6.
